The values below are quoted from earlier work in article PMC2880562.

The series deals with Arginine repressor ArgR (trimer) (Escherichia coli) (UniProt P0A6D0). Description: analytical ultracentrifugation.

For orientation: Kd means a measure of binding affinity in units of concentration. As to “Arginine repressor ArgR (trimer) (from UniProt P0A6D0)”, the Kd was below 2.5 nM.
